The target of experiment [1] is porcine aminopeptidase N (pAPN) ectodomain with a C-terminal His6 tag (UniProt P15145). Kind of experiment: ELISA. The conditions noted are these: read off a plot.
The target of experiment [2] is the three mutant proteins. Kind of experiment: ELISA; plates coated overnight at 4 °C with IgG4 Fc-tagged S1 fragments or mutants (60 μg/mL or 120 to 1.875 μg/mL), blocked with BSA, incubated with His6-tagged pAPN (50 μg/mL) 2 h at RT; anti-His detection. (ELISA stands for enzyme-linked immunosorbent assay.)
Where [3] appears, read: S protein 1.875 μg/mL, parent: est. 0.25.
[4] abbreviates: S protein 3.75 μg/mL, parent: est. 0.42.
Where [5] appears, read: S protein 7.5 μg/mL, parent: est. 0.70.
Setting [6] is: S protein 15 μg/mL, parent: est. 1.2.
Setting [7] is: S protein 30 μg/mL, parent: est. 1.7.
The mark [8] stands for this setting: S protein 60 μg/mL, parent: est. 2.0.
Where [9] appears, read: S proteins coated at 60 μg/mL, pAPN in solution, parent: est. 1.9.

Consider “PEDV CHGD-01 S1 C-terminus fragment S477-629 with a C-terminal IgG4 Fc tag residues 607-615 replaced by SGSGS (RBM3-2)”, for which the response in experiment [1] (setting [3]) was 0.05 Abs (630 nm); in experiment [1] (setting [4]), 0.06 Abs (630 nm); in experiment [1] (setting [5]), 0.13 Abs (630 nm); in experiment [1] (setting [6]), 0.34 Abs (630 nm); in experiment [1] (setting [7]), 0.8 Abs (630 nm); in experiment [1] (setting [8]), 1.2 Abs (630 nm). The response in experiment [1] (setting [9]) is 1.4 Abs (630 nm).
As to “PEDV CHGD-01 S1 C-terminus fragment S477-629 with a C-terminal IgG4 Fc tag residues 556-563 replaced by HCoV-NL63 residues 534-541 (RBM2-1)”, the response in experiment [1] (setting [3]) is 0.15 Abs (630 nm); in experiment [1] (setting [4]) it was 0.32 Abs (630 nm); in experiment [1] (setting [5]) it was 0.7 Abs (630 nm); in experiment [1] (setting [6]), 0.88 Abs (630 nm); in experiment [1] (setting [7]), 0.93 Abs (630 nm); in experiment [1] (setting [8]) it was 1.1 Abs (630 nm). Also, the response in experiment [1] (setting [9]) is 1.2 Abs (630 nm).
Turning to “PEDV CHGD-01 S1 C-terminus fragment S477-629 with a C-terminal IgG4 Fc tag residues 521-534 replaced by HCoV-NL63 residues 493-506 (RBM1-1)”, the response in experiment [1] (setting [3]) is 0.13 Abs (630 nm); in experiment [1] (setting [4]), 0.25 Abs (630 nm); in experiment [1] (setting [5]), 0.6 Abs (630 nm); in experiment [1] (setting [6]), 0.98 Abs (630 nm); in experiment [1] (setting [7]) it was 1 Abs (630 nm); in experiment [1] (setting [8]) it was 1.1 Abs (630 nm). Further, the response in experiment [1] (setting [9]) is 1.2 Abs (630 nm).

B1: porcine aminopeptidase N (pAPN) ectodomain with a C-terminal His6 tag (receptor)
chain: QSKPWNRYRLPTTLLPDSYNVTLRPYLTPNADGLYIFKGKSIVRLLCQEPTDVIIIHSKKLNYTTQGHMVVLRGVGDSQVPEIDRTELVELTEYLVVHLKGSLQPGHMYEMESEFQGELADDLAGFYRSEYMEGNVKKVLATTQMQSTDARKSFPCFDEPAMKATFNITLIHPNNLTALSNMPPKGSSTPLAEDPNWSVTEFETTPVMSTYLLAYIVSEFQSVNETAQNGVLIRIWARPNAIAEGHGMYALNVTGPILNFFANHYNTSYPLPKSDQIALPDFNAGAMENWGLVTYRENALLFDPQSSSISNKERVVTVIAHELAHQWFGNLVTLAWWNDLWLNEGFASYVEYLGADHAEPTWNLKDLIVPGDVYRVMAVDALASSHPLTTPAEEVNTPAQISEMFDSISYSKGASVIRMLSNFLTEDLFKEGLASYLHAFAYQNTTYLDLWEHLQKAVDAQTSIRLPDTVRAIMDRWTLQMGFPVITVDTKTGNISQKHFLLDSESNVTRSSAFDYLWIVPISSIKNGVMQDHYWLRDVSQAQNDLFKTASDDWVLLNVNVTGYFQVNYDEDNWRMIQHQLQTNLSVIPVINRAQVIYDSFNLATAHMVPVTLALDNTLFLNGEKEYMPWQAALSSLSYFSLMFDRSEVYGPMKKYLRKQVEPLFQHFETLTKNWTERPENLMDQYSEINAISTACSNGLPQCENLAKTLFDQWMSDPENNPIHPNLRSTIYCNAIAQGGQDQWDFAWGQLQQAQLVNEADKLRSALACSNEVWLLNRYLGYTLNPDLIRKQDATSTINSIASNVIGQPLAWDFVQSNWKKLFQDYGGGSFSFSNLIQGVTRRFSSEFELQQLEQFKKNNMDVGFGSGTRALEQALEKTKANIKWVKENKEVVLNWFIEHS
On to B1, for which the percent reduction of receptor-binding activity against wild-type S477–629 in experiment [2] is 30 to 40%.

Source of the values: paper PMC4810246.
